The values that follow come from a protein production outcome set (Wang et al. 2014).

This data set can be described thus: label from the status in PepcDB records.
As to “MTYHASTPSTPLLVTGGTGTLGGHVVPLLREAGHDVRVLTRRTRPATGNGITYVTGDLRTGEGVEAAVDGVHTVLHLAGGPKGDDEATRTLVRAAARADVRHLAYISVVGADRVPLAWLRTKLESERAIADSGLGWTVLRAAQFHELTLTMIEKMTRLPVLPVPGGLRLQPVAAREVAVRLAELTLAEPSGRVPDMTGPEVLDLATLAHSYLDLRGGRRRPKLPVRIPGKAGRAYRSGQNLTLEDALVGKVTWTEFLAERAAV”, the protein production result is recorded as “failed”.

On to “MKQIIIAIGREFGSGGHLVAKKLAEHYNIPLYSKELLDEVAKDGRYSKEVLERFDEKPMNFAFIPVPAGGTTISLEQDIAIRQFNFIRKKANEEKESFVIVGRCAEEILSDNPNMISAFILGDKDTKTKRVMEREGVDEKTALNMMKKMDKMRKVYHNFYCESKWGDSRTYDICIKIGKVDVDTATDMIIKYIDSRDN”, for which the protein production result was “not failed”. As to “MPVRRPCPGRPYRDLSSAPGTAVRAEPTTPLPPFALRTCACQTPGRDMSVNALTAVPSARSIPATSAFRGRIGCDARSGHYPVPGRYRLHLSPSCPHCLKIAVAHSLLGLEDACPVTLLPAVPDGPGGEHSALRPLYEASAHRYAGAAVAPVLSDDWSGRIVSTHAPDIMRDLARRFGGERPPLYPKGMEAEIEAVGHLCEQGINATAQRAGRADADDAERDSALGSLLRTLRSLEGRLARQDYLLGDRLTAADIELWVSLVQLDTVHRWHLDASAVHRVADHPALWAYARRLAGDPAFGAHLDLDGIARRHHAHCRGLEAAGAAVQIVEWAAHAPDRTASRQG”, the protein production result is “failed”. Regarding “MNIQALLSEKVSQALIAAGAPADCEPQVRQSAKVQFGDYQANGVMAVAKKLGMAPRQLAEQVLSHLDLNGIANKVEIAGPGFINIFLDPAFLADNVNRALQSERLG”, the protein production result is “not failed”. To “MKKIYIILLILFVILISLIGASILLVMSLSGENVDLFGGEKIAKVYLCNEIYFDYNQGDGIFPQQKKDARYYINLLDDLEKDDSVKGVLLVVNSPGGEVIASEKLARKVEELAKKKPVVVYVEGLDASGAYMVSAPADYIVAEKHSIVGSIGVRMDLMHYYGLMKKLGINVTTIKAGKYKDIGSPFRPMTKEEKEYLQKMINETYMDFVKWVAEHRHLSINYTLKIADGKIYSGEDAKKVGLVDEVGTEEDALKKLEQLANVSNPEIVEYGLEENKGLFGLTYYLGYGIGKGIGEVLYGMEKINGRVELLSLEHHHHHH” belongs “failed”; to “MNDIYFDDNRHNWNDRARLHEEAGYGIDKLLSDRDYITPEVEQDKDLIGDLTNKDVLHLQCHLGTDTISLARLGARRVLGLDLSDESLRRARNLAKKAGVSIDFIEGNVYDAREVIVGDFDLIYTSLGVLCWLPDITAWGRVVASLLKSGGKFIIRDDHPMFMTIGEDVRDGFKIEQPYFEQSQPMTWEDEGSYIETDASFEKIKNTRNHQWNHALSEIIMALINAGLQIDLVSESQHAAWNIWPHLMEKCSDGSYRLKKHSEVLPLQFLISAHKPEA”, “failed”; to “MSDALINGLAGAGGGIIAQLLTYPLQTVNTRQQTERDLKREKRKLGTIEHMCQVVKQEGWERLYGGLAPSLAGTAASQGVYYYFYQVFRNRAEATALARKKKGLGDGSVGMFASLLVAAFAGSVNVLMTNPIWVIVTRMQTHRKMTKDQTAAPESPSSNAEALVAVEPRPYGTFNTIREVYDEAGITGFWKGVIPTLIMVSNPSMQFMLYETMLTKLKKKRALKGSNNVTALETFLLGAVAKLGATVTTYPLLVVKSRLQAKQVTTGDKRQQYKGTLDAILKMIRYEGLYGFYKGMSTKIVQSVLAAAVLFMIKEELVKGAKLLLSNATSS”, “failed”. The value for “MFPRALAIGTPAQHKATEAPVTSTSASGLARFNTLEETAALAELHEACAATAWARHLLAARPFATAEDLYAASDAAMAELSAEDLAEAMAGHPPIGRPKPGDATSSREQAGMAGAAEELKAEMLELNLAYQDKFGHVFLICATGRTGEQMRDAALERIGNSPEQEREIVRTELGKINRIRLTRLVEQDARPLEHHHHHH” was “not failed”; that for “MRLTVDQALAQAIAAHRSGQLQDAERLYRAILDAAPGHADANHNLGVLAVGVGKPQAGLSFLKAALEINPAQGQFWVSYIDALIAAGLPAAARDHLEQAKRRGLTGDAVERLEKRLDPASQPPQALLDSVVAQYRSGNLAAAESQAHALTLSFPNHELGWKVLGAVFSVTGRSEESLASMRQALSLNPQDAETFKNLAILLLKLKRAEEAEAACRSALALAPDYPQVHLTLGNALIDLARAAEAEESFRQAIRLKPDYSEAHCNLGCALKLSGRLTEAETCFRRAIQLNPADAQAHNNLGDVFKDLGRFADAEAFYRAAIGLKPEYLEAHSNLLLCLNYFETSSPDTYLAEAKQYGSVASAAATPKFSAWSIQPEPRRLRVGFISGDLNSHPVGYFSESVFQHLDRDRFELFAFPTTPKTDALTSRISPFFAGWCPIFGMDDHAAATAIHTQGVHVLVDLSGHTADNRLPVFAFRPAPVQASWLGYFATTGLPEMDYFLGDRYMVTETEQQRFTETLWRLPETWLCLAPHERSIPINPPPVLTNGFMTFGCLGNLSKMNGEVVALWSQILRAVPESKLLLKAKPFVDAQVVADIQARFAREGVSSDRLILEGPSSRAEYFETYNRIDLVLDTFPYPGGTTSVDALWMGVPVLTLAGDRFLARLGESIARNAGQSAWVARDRADYLAKAVAFASVRDVAHDRPALRRSVLTTPLFDPERFARDFGDTLWGMWSQGRSHPLRKDAPCRS” was “failed”. As to “MAVRGVSLRQPYPREPRGWHQEWSLRRAMRMARAAYWESYSATATDFWMSAEFTSLYDADTPDDSVPLAPARDHDLTDSHAILQAHYAACWTEGRPFAVETKLIKPDGRLLDCVVHGEPEFDANGQVQRVFGIVRDATPETSALRQLAVSEQRLADFVSTASDWCWESGPDHRLLPYPKSLDGNAALQTVASGGKARWELAYAPDEEGSMALHRDDMEAHRPFRDFIYTSIGNDGSRIIISTSGKPIFADDGTFLGYRGTASDITQLAAARTLLDQRTGALEEAHRLGRIGTWTHRLDTGRTVWSPELYQLLGLEPDAFEPTYEGTEPYFLDDDAARLLKIQKRVLRTSTTEATDIRILHTDGTPRDLAIICKAEISNGNVIGLIGTAQDVTDRKEAERRLEQLAYTDPLTGLANRALYKRKLADLFENPMAEHGQNALYLIDLDRFKEVNDSLGHSTGDSLLIHVAGVLRQELGPQAFIARIGGDEFAVLTNSPNTSVEATTALADRLIAKLSVPVELAEGEACIGATIGIAILPEHGATAEKASRNADLALYMAKEAGRGRAQLFEPMYAEAVDQKLDLGRRLRHAVDSGGLNTHYQPQIDLKTGRVIGFEALLRWSHPERGPISPAEFIPIAETTGLIVDLGHWVLRDACKQMRGWLDAGLPARTISVNVSPAQIWNGDFEKVVATVLADTGLPPELLCLELTENLFVDHTKQKVSTTLAALSKLGIQLALDDFGSGYSSLGYLTRLPFNRLKIDRSFVDGIATVPEKRKLLGGIIALSHGLGMSVVAEGAELQAEVDLLAAFDCDFVQGYAFSKPVAADQAAVVAAEIERKPGR”, the protein production entry is reported as “failed”. Consider “MQELLFIRLNELILLIYLFSIACYFFDFIKRFYKIRNIGFVTLGIVWVLQTISLSFYVTATNQVPLGNVFDVLFALAWLIISISIVISVIKQVNISIFLFNIIGFVFIAISTFQPMHYQGAGEKLNVINELLIVHVTFAIISYAIFAFAFVNSILYLIQFKNLKQKRFTQKYFRISSVATLEKVVFYNSLVGFLFIILSIILGAQWGINTIGMDIFVDPKVIMSVIITILYGLYLLLRVRQSISKHKLIYINIILFCLNMINLLFTSHVSDFHQWTGI”, for which the protein production entry is “failed”. As for “MMEERANLMHMMKLSIKVLLQSALSLGRSLDADHAPLQQFFVVMEHCLKHGLKVKKSFIGQNKSFFGPLELVEKLCPEASDIATSVRNLPELKTAVGRGRAWLYLALMQKKLADYLKVLIDNKHLLSEFYEPEALMMEEEGMVIVGLLVGLNVLDANLCLKGEDLDSQVGVIDFSLYLKDVQDLDGGKEHERITDVLDQKNYVEELNRHLSCTVGDLQTKIDGLEKTNSKLQEELSAATDRICSLQEEQQQLREQNELIRERSEKSVEITKQDTKVELETYKQTRQGLDEMYSDVWKQLKEEKKVRLELEKELELQIGMKTEMEIAMKLLEKDTHEKQDTLVALRQQLEEVKAINLQMFHKAQNAESSLQQKNEAITSFEGKTNQVMSSMKQMEERLQHSERARQGAEERSHKLQQELGGRIGALQLQLSQLHEQCSSLEKELKSEKEQRQALQRELQHEKDTSSLLRMELQQVEGLKKELRELQDEKAELQKICEEQEQALQEMGLHLSQSKLKMEDIKEVNQALKGHAWLKDDEATHCRQCEKEFSISRRKHHCRNCGHIFCNTCSSNELALPSYPKPVRVCDSCHTLLLQRCSSTAS”, the protein production entry is “not failed”.

“MNPIVKAPTLNDLPAPPPGKTGWPWTEQNEALPEKMPDGSDWPKISIVTPSYNYGQFIEETIRSVLLQGYPNLEYIVVDGGSTDNTVTIIRKYEKYLKYWASEPDHGQTDAINKGYRYCSGDVFAWLNADDLYYDQSTLLKVINFYQKGYDLIVGECLNINADGTHFNQAITSTEKSDPTYFKKYLRYWSSGFLPQPAIFVKKEMADQCFPLSIELYYAMDFQFFLRVLNQEPKSVWIQEKLTRLRWHEDSKTMGTISRIDFHAIVPEPEVHKVALAEAENLPTWLEKIFFRIQAFDYLSLQPYINSLDNFHWLQITKTIVKRPTLAVWPLFWKIFFRSLLGEQIYKLLKRTIRTNLEHHHHHH”: the protein production result is on record as “not failed”.

Take “MSQEAFENKLYANLEAVIDPELGVDIVNLGLVYDVTADENNNAVITMTMTSIGCPMAGQIVSDVKKVLSTNVPEVNEIEVNVVWNPPWSKERMSRMAKIALGIRD”: the protein production result is on record as “not failed”. Consider “MLLEDRILKKWLLPFILSVLIAVDSMAQCIPVYKDSSMSVERRVTDLLGRMTLREKIAQLSHLHGYQLYNGQEVDYQKLRDAAGDISYGCIEGFNLTGENVRKAFHAIQKYMVEETRLGIPVFTVTESLHGSVHDGSTIFPQSVAVGSTFNLDLAYQMTKAIATELRSQGVIQTLSPGLDVVRDLRWGRVEESFGEDPWLVGQMGIAQVKGYIDGGISPMLKPFGPGGAPLGGLNLASVESGERDIRNIHIKPYEMAVRNTEVKAVMTSYNSWNGIPNSASSYLLTNILRNEWGFKGYVYSDWGAVAMLKDFQHTAKDDSEAAIQALTAGVDLEASSNCYWALEQLIEQGRFDEKYVDLAVGRILRVKFELGLFENPYQGADMPGVAMRTKEAVELSRRVADESIVLLKNENTLLPLNLNKIKSLAVIGPNANQVQFGDYTWSRSNKDGVTPLEGLKKRVGNKIKINYAAGCDLITDNKSGFDEAVAAVKASDMAVVFVGSSSASLARDYSDATCGEGFDLSSLDLTGVQEELVEEIYAIGKPVIVVLVTGKPFSISWIKEHIPAIVVQWYGGEKAGDAIADMLLGNINPSAKLPFSFPQSVGHLPVFYNHLPTDKGFYRRPGRPNEPGRDYVFSSPAPLWSFGHGLSYTTFEYLNAHYSAELLHPSDTLIVSVSLKNTGSVAGKEVVQLYVRDVVSSVVTPVKQLKAFSKPFLQPGEMQTVVLKLPIQELALYDLSMKKVVEEGEYEIQIGTASDDIRLRRTIFVGRQPVTSNSLGHNDFCMDEIVKNPGRKIKVAGCVRDVQATPISGIEIKSNYSGRTVISKEGGRYSILTVENDVLTVSAKGFETVNIKVNKQKDIDIKLNYSHD”, for which the protein production entry is reported as “failed”.

On to “MDKKVEKIQEKVRLFYKKHQRNTTIVVVISLSMILILGMAAWYEGKGISYEAKQTALREKQHALQKKRDDILAGKMTEASTQTTINNFSKQEITGENELVTITGTNGQLNINDANIYVSDNAGIVSNQLKQKMFQLNQQLLENANGAQFMLITVPALPSGESVESYSNKIANQLGVGDREKNNGVVFLMAIEDRESRLEVGYGLESILTDSYADDIINNEEVKEAFRDEDYNTGLNKIIDQVSAAINSKTAQVDNELTNIQTELNTNTTKRNVLLMASIAGMLICAVYILQILRTRKLVKKMYQDYLNCLPTKAVLNNSEQTKKVLNKMKKTSFYCLYLNGATLFATKGKIRRATKRGSLLSIYPNAKKQSFGRLLVGDTLYSYDGSVLTYAYLNSQYNPSNHSSSGSGSGGSFGGGSFGGGGASGSWLEHHHHHH”, for which the protein production result is “not failed”.
